Test: Stability test of ADC mimic in rat plasma (eliminated fluorescent molecules by HPLC/fluorescence detection)
Format: in vitro ADME
Settings: ADC mimic 0.1 mg/mL, 37° C. for 4 days vs -80° C. (Day 0 = 100%)
Procedure: Blood stability of various ADC mimics was assessed by analyzing the amounts of fluorescent molecules that were reduced from ADC mimic when ADC mimic was incubated in rat blood as described below.
Sterile filtration was performed on 700 μL of rat plasma (Charles River) after ADC mimic was added to it so as to be 0.1 mg/mL. The solution was dispensed into six Eppen tubes in 50 μL portions. Three of the six samples were stored in an incubator set at 37° C. for 4 days. The remaining three were also stored in a −80° C. freezer for 4 days. 100 μL of acetonitrile was added to each sample, and the mixture was vortexed and centrifuged to obtain a precipitate. The resulting supernatant was collected and analyzed by HPLC.
The determination was made using a liquid chromatography/fluorescence detection method to determine the amount of fluorescence molecules that had eliminated from ADC mimic.
A lower rate of increase indicates higher stability in plasma.
Increase in fluorescence intensity of fluorescent molecules eliminated from Example ADC mimic=[(Day=4 fluorescence intensity)−(Day=0 fluorescence intensity)].
Increase in fluorescence intensity of fluorescent molecules eliminated from Control ADC mimic=[(Day=4 fluorescence intensity)−(Day=0 fluorescence intensity)].
Carboxyrhodamine 110-PEG4-DBCO was separately used to calculate the colleration between area-area of fluorescent intensity and concentration for HPLC. An increase in the fluorescent intensity of the respective ADC mimic was converted into a concentration by using the calculation equation. When the concentration of Day 0 was taken as 100%, the percentage of the concentration of the above increase was calculated as the elimination rate.

| SMILES | Elimination rate of fluorescence molecule at Day = 4 [%] |
| --- | --- |
| CCCNC(=O)CC[C@H](NC(=O)CCCCN=[N+]=[N-])C(=O)NO [compound 96] | <3 |
| CCCNC(=O)CC[C@H](NC(=O)CCCCN=[N+]=[N-])C(=O)NOC [compound 101] | <3 |
| CCCNC(=O)C[C@H](NC(=O)CCCCN=[N+]=[N-])C(=O)NO [compound 111] | 21 |
| CCCNC(=O)C[C@H](NC(=O)COCCOCCOCCN=[N+]=[N-])C(=O)NO [compound 107] | 20 |
| CCNC(=O)CC[C@H](NC(=O)CCCCN=[N+]=[N-])C(=O)NOC [compound 102] | <3 |
| CCCNC(=O)c1cc(N=[N+]=[N-])cc(C(=O)NO)c1 [compound 93] | <3 |

From patent US20240115719A1, “COMPOUND OR SALT THEREOF, AND ANTIBODY OBTAINED BY USING THE SAME” (priority 2021, published 2024)
